Laboratory results taken from patent US20240343803A1 (SHANDONG SIMCERE BIOPHARMACEUTICAL, published 2024).

Key:
[1] = target: T1, human PVRIG-his (AcroBiosystems, Cat NO. PVG-H52H4) (human, UniProt Q6DKI7 41-171, limits assumed); assay: ELISA, coated human PVRIG-his
T1 construct: treated as the same protein; also called human PVRIG-His protein; Human PVRIG-His, Acro C227P1-9ARF1-T4
T1 sequence (looked up): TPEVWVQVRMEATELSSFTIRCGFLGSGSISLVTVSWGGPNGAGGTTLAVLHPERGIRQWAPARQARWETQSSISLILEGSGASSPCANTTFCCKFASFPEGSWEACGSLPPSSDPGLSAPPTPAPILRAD
Procedure: (§1) The ELISA plate was pre-coated with 100 μL/well of 0.5 μg/mL human PVRIG-his (AcroBiosystems, Cat NO. PVG-H52H4) or cynomolgus monkey PVRIG (Novoprotein, Cat NO. C09B). […] A HRP substrate, TMB (Thermo, Cat NO. 34029) was added into wells after washing the plate again for color development. After adding a termination solution to terminate the reaction, the absorbance value was read by a microplate reader (MD i3×). An antibody binding curve was drawn with concentration of antibodies as the abscissa and the corresponding OD value as the ordinate. The EC50 value was calculated by using a Four Parameter Logistic Fit (GraphPadPrism9). The smaller the EC50 value, the stronger the ability of the antibodies binds to human or cynomolgus monkey PVRIG. The positive control antibodies are COM701-hIgG1 (Patent No.:US20180244774A1), COM701-hIgG4 (patent No.: US20180244774A1) and SRF813-hIgG1 (Patent No.:US20200040081A1); and the negative control antibodies are anti-HA HcAb-hIgG1 (Chengdu NB Biolab, Cat NO. NBR022), anti-CD38 HcAb-hIgG1 (in-house) and anti-Fluorescein-hIgG1 (in house).

[2] = target: T2, cynomolgus monkey PVRIG on FlpinCHO-cyno PVRIG cells (cynomolgus monkey, UniProt A0A2K5WVV8 41-322); assay: FACS, FlpinCHO-cyno PVRIG cells
T2 construct: whole, on cells; also called FlpinCHO-cynomolgus monkey PVRIG
T2 sequence: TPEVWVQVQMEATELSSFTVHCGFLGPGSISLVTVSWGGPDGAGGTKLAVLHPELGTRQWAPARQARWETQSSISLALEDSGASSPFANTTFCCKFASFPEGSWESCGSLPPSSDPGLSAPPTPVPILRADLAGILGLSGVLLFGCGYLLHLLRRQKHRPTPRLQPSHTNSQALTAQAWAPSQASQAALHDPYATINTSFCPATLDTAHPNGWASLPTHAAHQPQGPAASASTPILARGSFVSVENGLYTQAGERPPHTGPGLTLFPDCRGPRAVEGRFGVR
Procedure: After discarding the cell culture medium, the cells were rinsed with PBS and digested for 8-10 minutes by adding 1 mL Versene (Gibico, 15040-066). The Ham's F12 (Gibico, 21127-022) complete medium containing 10% FBS was then added to terminate the digestion and acquire cell suspension. After counting with a cell counter (Beckman Coulter, Vi-CELL), an appropriate amount of cell suspension was centrifuged at 350×g to remove the supernatant, washed twice with PBS, stained with Zombie violet (Biolegend, 423114) and incubated at room temperature for 20 minutes. After incubation, the cells were added with staining buffer (2% FBS+PBS) to stop staining, centrifuged at 350×g to remove the supernatant, washed twice and resuspended with staining buffer to a density of 2×10⁶ cells/mL. The cells were plated into a 96-well plate (50 μL of cell suspension per well) for further use. The antibodies were diluted from the highest concentration of 46 nM (two-fold concentration) with staining buffer by 3.3-fold serial dilution. The diluted antibodies were added to the well containing 50 μL of cell suspension. The plate was placed on a microplate shaker at 400 rpm for 1 minute to fully mix the antibodies and cells, and then incubated at 4° C. for 30 minutes. After the incubation, the cells were washed twice with staining buffer (200 μL per well) and centrifuged at 350×g for 5 minutes to discard the supernatant. The PE goat anti-human IgG Fc antibody (ebioscience, 12-4998-82) was diluted 250 times with staining buffer, added into the washed wells (100 μL per well), mixed well, and stained at 4° C. for 30 minutes. After staining, the cells were washed twice with staining buffer, finally resuspended with 200 μL staining buffer and analyzed by flow cytometry (BD, Canto II). […] An antibody binding curve was drawn with concentration of antibodies as the abscissa and the corresponding Mean Fluorescence Intensity (MFI) as the ordinate. The AUC value of the curve was calculated by using a Four Parameter Logistic Fit (GraphPadPrism9). […]

[3] = target: T2, cynomolgus monkey PVRIG on …; assay: FACS, FlpinCHO-cyno PVRIG cells; remark: listed apart in the source
[4] = target: T3, cynomolgus monkey PVRIG (Novoprotein, Cat NO. C09B) (cynomolgus monkey, UniProt A0A2K5WVV8 41-171); assay: ELISA, coated cynomolgus monkey PVRIG
T3 construct: bought reagent; also called cynomolgus monkey PVRIG recombinant protein
T3 sequence: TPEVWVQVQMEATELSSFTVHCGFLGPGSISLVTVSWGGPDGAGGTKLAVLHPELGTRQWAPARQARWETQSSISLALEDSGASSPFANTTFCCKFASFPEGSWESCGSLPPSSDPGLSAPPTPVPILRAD
Procedure: as §1

[5] = target: T2, cynomolgus monkey PVRIG on …; assay: FACS, FlpinCHO cynomolgus monkey PVRIG cells
Procedure: CHO-K1 stable cells ([…]-61™) transfected with human or cynomolgus monkey PVRIG high expression plasmids were named FlpinCHO-hPVRIG and FlpinCHO-cynoPVRIG. […] After discarding the cell culture medium, the cells were rinsed with PBS and digested for 8-10 minutes by adding 1 mL Versene (Gibico, 15040-066). The Ham's F12 (Gibico, 21127-022) complete medium containing 10% FBS was then added to terminate the digestion and acquire cell suspension. After cell counting, an appropriate amount of cell suspension was centrifuged at 350×g to remove the supernatant, washed twice with PBS, stained with Zombie violet (Biolegend, 423114) and incubated at room temperature for 20 minutes. After incubation, the cells were added with staining buffer (2% FBS+PBS) to stop staining, centrifuged at 350×g to remove the supernatant, washed twice and resuspended with staining buffer to a density of 2×10⁶ cells/mL. The cells were plated into a 96-well plate (50 μL of cell suspension per well) for further use. The antibodies were diluted from the highest concentration of 46 nM (two-fold concentration) with staining buffer by 3.3-fold serial dilution. The diluted antibodies were added to the well containing 50 μL of cell suspension. […] After staining, the cells were washed twice with staining buffer, finally resuspended with 200 μL staining buffer and analyzed by flow cytometry (BD, Canto II).

B1: COM701-hIgG1 (antibody, V domains shown)
VH: QVQLVQSGAEVKKPGASVKVSCKASGYTFTDYNINWVRQAPGQGLEWMGYIYPYIGGSGYAQKFQGRVTMTRDTSTSTVYMELSSLRSEDTAVYYCAREDKTARNAMDYWGQGTLVTVSS
VL: DIQMTQSPSSLSASVGDRVTITCRVSENIYSNLAWYQQKPGKAPKLLIYEATNLAEGVPSRFSGSGSGTDFTLTISSLQPEDFATYYCQHFWGTPYTFGQGTKLEIK
notes: human IgG1 format by its name
B1 was tested, and the “EC50 (read off the curve)” value [1] was about 0.06 nM, the “EC50 (read off the curve)” value [2] was about 0.5 nM and the “EC50 (read off the curve)” value [3] was about 0.6 nM. For the same binder, the “EC50 (read off the curve)” value [4] was about 0.04 nM and the “EC50 (read off the curve)” value [5] was about 0.5 nM.
